The record followed here is the nanobody polyreactivity screen of Harvey et al. (2022).

A short description of this data set: yeast display, Sf9 membrane polyspecificity reagent, FACS + sequencing; frameworks hold sequencing errors. Summed up: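 Nanobodies from a synthetic yeast display library (Saccharomyces cerevisiae BJ5465), induced 36–48 hours with galactose, were stained 1 hour at 4 °C with 10% biotinylated, detergent-solubilized Sf9 membrane reagent, enriched on streptavidin microbeads, then FACS-sorted. Anti-HA (expression) and streptavidin (reagent binding) fluorescence set low and high (top ~1%) gates. Polyreactivity labels come from the gate of origin. Genes were colony-PCR amplified, MiSeq 2 × 250 sequenced and filtered by CDR length.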
Consider “QVQLVESGGGLVQAGGSLRLSCAASGRIIYWYAMGWYRQAPGKERELVAAIDWSAASTYYADSVKGRFTISRDNAKNTVYLQMNSLKPEDTAVYYCNRRGRGGESYRTTPGALGYWGQGTQVTVSS”, for which the “polyreactivity (PSR sort gate)” value is on record as “low polyreactivity”. For “QVQLVESGGGLVQAGGSLRLSCAASGRIIYYAMGRYRQAPGKERELVAAITRNGGTYADSVKGRFTISRDNSKNTVYLPMISLKAEDSAVYYCNADPDFGDDYWGQGTQVTVSS” the value was “low polyreactivity”; for “QVQLVESGGGLVQAGGSLRLSCAASGRILAANAMGWYRQAPGKERELVAAISWSGGRTYYADSVKGRFTISRDNAKNTVYLQMNSLKPEDTAVYYCNKLALAGYDYWGQGTQVTVSS”, “high polyreactivity”; for “QVQLVESGGGLVQAGGSLRLSCAASGRILADNAMGWYRQAPGKERELVAAISESGGSTYYADSVKGRFTISRDNAKNTVYLQMNSLKAEDTAVYYCAADTASIYYEYYYWGQGTQVTVSS”, “low polyreactivity”.

Regarding “QVQLVESGGGLVQAGGSLRLSCAASGRILDKYAMGWYRPAPGKERELVARIRFSGGDTYADSVKGRFTISRDNAKNTVYLQMNSLKPEDTAVYYCNKDRRNRWDAFDYWGQGTQVTVSS”, the “polyreactivity (PSR sort gate)” value is reported as “low polyreactivity”.

Turning to “QVQLVESGGGLVQAGGSLRLSCAASGRILDYYAMGWYRQAPGKERELVAAIRRRGVITYADSVKGRFTISRDNAKNTVYLQMNSLKPEDTAVYYCAAGGYEYGYWGQGTQVTVSS”, the “polyreactivity (PSR sort gate)” value was “low polyreactivity”. With “QVQLVESGGGLVQAGGSLRLSCAASGRILEGYAMGWYRQAPGKEELVAAITSDASTYYADSVKGRFTMSRDNAKNTVYLQINSLKPEDTAVYYCAADTYDNDYYYWGQGTLVTVSS”, the “polyreactivity (PSR sort gate)” value was “high polyreactivity”. The entry for “QVQLVESGGGLVQAGGSLRLSCAASGRILGAYAMGWYRQAPGKERELVASISSGGRTYYADSVKGRFTISRDNAKNTVYLQMNSLKPEDTAVYYCAAYVYTSFLYYYWGQGTQVTVSS” is “high polyreactivity”; for “QVQLVESGGGLVQAGGSLRLSCAASGRILGFYAMGWYRQAPGKEMELVARINWSGTRTYYADSVKGRFTISRDNAKNTVYLQMNSLKPEDTAVYYCAAERYPYGVTYSKLDYWGQGTQVTVSS” it is “high polyreactivity”. Turning to “QVQLVESGGGLVQAGGSLRLSCAASGRILGFYAMGWYRQAPGKERELDARINWSGTRTYYADSVKGRFTISRDNAKNTVYLQMNSLKPEDTAVYYCAAERYPYGVTYSKLDYWGQGTQVTVSS”, the “polyreactivity (PSR sort gate)” value was “high polyreactivity”.

Turning to “QVQLVESGGGLVQAGGSLRLSCAASGRILGGNAMGWYRQAPGKERELVAAITSGGTTNYADSVKGRFTISRDNAKNTVYLQMNSLKPEDTAVYYCNADWTDGDWADMDYWGQGTQVTVSS”, the “polyreactivity (PSR sort gate)” value was “low polyreactivity”. Consider “QVQLVESGGGLVQAGGSLRLSCAASGRILIGYTMGWYRQAPGTERELVARNNYSGGSTYYADSVKGRFTISRDISKNTVYLQMNSLKPEESGDYYCAADVRRGYYTWPPRRVYYWGQGTQVTVSS”, for which the “polyreactivity (PSR sort gate)” value is recorded as “high polyreactivity”. For “QVQLVESGGGLVQAGGSLRLSCAASGRILIHYAMRWYRQAPGKERELVAAIDNSVSTYYADSVKGRFTISRDNAKNTVYLQMNSLKPEDTAVYYCAADHWTHSVWGSGYKYYYWGQGTQVTVSS” the value was “high polyreactivity”; for “QVQLVESGGGLVQAGGSLRLSCAASGRILKSYAMGWCRHAPGKERELVAAIRSGGSTYYADSVKGRFTISRDNAKNTVYLQMYSLKPEDTAVYYCNRVTRTWKVNYHYWGQGTQVTVSS”, “high polyreactivity”.

On to “QVQLVESGGGLVQAGGSLRLSCAASGRILKWYAMGWYRQAPGKERELVAAISARGGSTFYADSVKGRFTISRDNAKNTVYLQMNSLKPEDTAVYYCNTYYRGGPYDVAYDYWGQGTEVTVSS”, for which the “polyreactivity (PSR sort gate)” value was “high polyreactivity”. For “QVQLVESGGGLVQAGGSLRLSCAASGRILLGNVMGWYRQAPGKERELVAAISIGGNTNYADSVKGRFTISRDNANNTVYLQMNSLKPEDTAVYYCNARSLVFPITFWEYDYWGEGTQVTVSS”, the “polyreactivity (PSR sort gate)” value is “low polyreactivity”. For “QVQLVESGGGLVQAGGSLRLSCAASGRILNYNAMGWYRQAPGKERELVAAITSSGGSTYYADSVKGRFTISRDNAKNTVYLQMNSLKPEDTAVYYCNALITYSSDYWGQGTQVTVSS” the value was “low polyreactivity”; for “QVQLVESGGGLVQAGGSLRLSCAASGRILPFNAMGWYRQAPGKERELVAAIRWRGSSTYYADSVKGRFTISRDIAKNTVYLQMNSLKPEDTAVYYCAAPSSVRGKVISAYYGYWGQGTQVTVSS”, “high polyreactivity”; for “QVQLVESGGGLVQAGGSLRLSCAASGRILPFYAMGWYRQAPGKERELVATISWTSDSTYYADSVKGRFTISRDNAKNTVYLQMNSLKPEDTAVYYCAREYTYTYASTVIYDHWGQGTQVTVSS”, “low polyreactivity”. The entry for “QVQLVESGGGLVQAGGSLRLSCAASGRILRGNAMGWYRQAPGKERELVADINYSDGSTYYADSVKGRFTISRDNAKNTVYLQMNSLKPEDTAVYYCAADLRITSYNSWGHGTQVTVSS” is “low polyreactivity”; for “QVQLVESGGGLVQAGGSLRLSCAASGRILRRNTMGWYRQAPGKERELVATITRGGGNTYADSVKGRFTISRDNAKNTVYLQMNSLKPEDTAVYYCARAYGSYDYWGQGTQVTVSS” it is “high polyreactivity”. The entry for “QVQLVESGGGLVQAGGSLRLSCAASGRILRSYAMGWYRQAPGKERELVAAISWRGGSTYYADSVKGRFTISRDNAKNTVYLQMNSLKPEDTAVYYCAKRSYYPARYDYWGQGTQVTVSS” is “high polyreactivity”. For the sequence “QVQLVESGGGLVQAGGSLRLSCAASGRILSEYPMGWYRQARGKERELVAAITISDGSTYYADSVKGRFTISRDNAKNTVYLQMNSVNPDDTAVYYCAADSYDYNPAYLFCYKYYYWGQGSQVTVSS”, the “polyreactivity (PSR sort gate)” value is “low polyreactivity”. Consider “QVQLVESGGGLVQAGGSLRLSCAASGRILSVYAMGWYRQAPGKERELVAAIEYSGGSTNYADSVKGRFTISRDNAKHTVYLQMNSLKPEDTAVYYCNREGGAIAWRYLLEYLYSWGQGTQVTVSS”, for which the “polyreactivity (PSR sort gate)” value is reported as “low polyreactivity”. The entry for “QVQLVESGGGLVQAGGSLRLSCAASGRILSYYAMGWYRQAPGKERELVATISASGGSTFYADSVKGRFTISRDNAKNTVYLQMNSLKPEDTAVYYCNAYWGRRVQRDYWGQGTQVTVSS” is “high polyreactivity”; for “QVQLVESGGGLVQAGGSLRLSCAASGRILTFYGLGWYRQAPGKERELVAAISNGGSTYYADSVKGRFTISRDNAKNTVYLQMNSLKPEDTAVYYCAKRILTAPRRNSGYDYWGQGTQVTVSS” it is “low polyreactivity”; for “QVQLVESGGGLVQAGGSLRLSCAASGRILVPNAMGWYRQAPGKERELVATITSSGSTYADSVKGRFTISRDNAKNTVYLQMNSLKPEDTAVYYCAAKYTGSFINYGLWGTYFEDDYWGQGTQVTVSS” it is “low polyreactivity”.

On to “QVQLVESGGGLVQAGGSLRLSCAASGRILVYYAMGWYRQAPGKEREFVAAISQRGGSTYYADSVKGRFTISRDNAKNTVYLQMNSLKPEDTAVYYCATRPIQYRRGYDYWGQGTQVTVSS”, for which the “polyreactivity (PSR sort gate)” value is reported as “high polyreactivity”. For “QVQLVESGGGLVQAGGSLRLSCAASGRILWSYAMGWYRQAPGKERELVASISGRGGSTYYADSVKGRFTISRDNAKNTVYLQMNSLKPEDTAVYYCAAYRLRFWSMDYWGQGTQVTVSS” the value was “high polyreactivity”; for “QVQLVESGGGLVQAGGSLRLSCAASGRILYGYAMGWYRQAPGTERELVASLSSGGRTYYADSVKGRFTISRDNAKNTVYLQMNSLKPEDTAVYYCAAVAYGNWYRYYYWGQGTQVTVSS”, “high polyreactivity”. As for “QVQLVESGGGLVQAGGSLRLSCAASGRILYGYVMGWYRQAPGKERELVAAISWSGARTYYADSVKGRFTISRDNAKNTVYLQMNSLKPEDTAVYYCAARVPSWKYDYWGQGTQVTVSS”, the “polyreactivity (PSR sort gate)” value is recorded as “high polyreactivity”. For “QVQLVESGGGLVQAGGSLRLSCAASGRILYHYAMGWYRQAPGKERELVAAITFSGDTTYYADSVKGRFTISRDNAKNTVYLQMNSLKPVDTAVYYCNTVYYWNYVSRLYDYWGQGTQVTVSS” the value was “high polyreactivity”; for “QVQLVESGGGLVQAGGSLRLSCAASGRILYLNAMGWYRQAPGKERELVAAITRRAGSTRYADSVKGRFTISRDNAKNTVYLQMNSLKPEDTAVYYCAVAYYRNRMDYWGQGTQVTVSS”, “high polyreactivity”. For “QVQLVESGGGLVQAGGSLRLSCAASGRILYPYAMGWYRQAPGKERELVASISWSGGRTYYADSVKGRFTISRDHAKYTVYLQMNSLKPEDTAVYYCAATFSYSSYIYDYWGQGTQVTVSS” the value was “high polyreactivity”; for “QVQLVESGGGLVQAGGSLRLSCAASGRILYQYAMGWYRQAPGKERELVASISGRSGRTRYADSVKGRFTISRDNAKNTVYLQMNSLKPEDTAVYYCNAGSSVLKYDYWGQGTQVTVSS”, “low polyreactivity”; for “QVQLVESGGGLVQAGGSLRLSCAASGRILYQYAMGWYRQAPGKVRELVASISGRSGRTRYADSVKGRFTISRDIAKNTVSLQMNSLKPEDTAVYYCYAGTSVLKYDYWGQGTQVTVSS”, “low polyreactivity”. The entry for “QVQLVESGGGLVQAGGSLRLSCAASGRILYSYAMGWYRQAPGKEREFVAAIRRSGGSTYYADSVKGRFSISRDNAKNTVYLQMNSLKPEDTAVYYCAAGRRYSGSYDYWGQGTQVTVSS” is “high polyreactivity”; for “QVQLVESGGGLVQAGGSLRLSCAASGRILYSYAMGWYRQAPGKERELVAAISSTGSTYYADSVKGRFTISRDNAKNTVYLQMNSLKPEDTAVYYCAATFYPYQVHHYYYWGQGTQVTVSS” it is “low polyreactivity”. For “QVQLVESGGGLVQAGGSLRLSCAASGRILYTYAMGWYRQAPGKERELVASIRSSGGITYYADSVKGRFTISRDNAKNTVYLQMNSLKPEDTAVYYCNAPYLVGTGPNGEYDYWGQGTEVTVSS”, the “polyreactivity (PSR sort gate)” value is “high polyreactivity”.

As to “QVQLVESGGGLVQAGGSLRLSCAASGRILYWYTMGWYRQAPGKERELVAAITDSVGRTYYADSVKGRFTISRDNAKNTVYLQMNSLKPEDTAVYYCNADPYAQQPYSYYYGYDYWGQGTQVTVSS”, the “polyreactivity (PSR sort gate)” value is listed as “low polyreactivity”. The entry for “QVQLVESGGGLVQAGGSLRLSCAASGRILYYYAMGWYRQAPGKERELVAAISGSAGTTYYADSVKGRFTISRDNAKNPVYLQMNSLKPEDTAVYYCSKYYPYIQADYGYDYWGQGTQVSVSS” is “low polyreactivity”.
